Data from the nanobody polyreactivity screen of Harvey et al. (2022).

Assay: yeast display, Sf9 membrane polyspecificity reagent, FACS + sequencing; frameworks hold sequencing errors
Procedure, shortened: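 In a synthetic yeast display library (Saccharomyces cerevisiae BJ5465), nanobody expression was induced with galactose for 36–48 hours. FACS gates were set low and high (top ~1%) using anti-HA fluorescence for expression and streptavidin fluorescence for binding of the Sf9 membrane reagent. Each polyreactivity label is drawn from the gate of origin.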

Row | Sequence | polyreactivity (PSR sort gate)
1 | QVQLVDSAGVLVQAGGSLSLICAASGRTYGIYAMGWYRQAPGKERELVADISSDASTSYAYSVKGRFTISRDNAKNTVYLQMNSLKAEDTAVYYCAADPGPYYDWGYYYWGQGTQVTVSS | low polyreactivity
2 | QVQLVDSGGALVQAGGSLRLSCAASGFIFRDNAMGWYRQAPGKESELVAAISSRGGSTYYADSVKGRFTISRDYAKNSVYLQMNRLKPEDTAVYYCAIRPYKSRVQMDCWGQGTQVTVSS | high polyreactivity
3 | QVQLVDSGGALVQAGGSLRLSCAASGPTFYTKTMGSYRQAPGKERELVAVISSGGGSTYYSDSVKGRFTISRDNAKNTVYLQMNSLKPEDTAVYYCAKRRGGQGNYWGQGPQVTVSS | high polyreactivity
4 | QVQLVDSGGALVQAGGSLSLSCAASGGKYDSYAMGWYRQAPGKERELVASISRSGSTNYADSVKGRFTISRDNAMNTVYLQMNSLNPEDTAVYYCAASVRGIRYDYWGQGTQVTVSS | low polyreactivity
5 | QVQLVDSGGCLVQAGGSLRLSCAASGFIFNFYAMGWYRQAPRQQREFVAAISTRGGSTYYADSVKGRFTISRDNAKNTVFLQMKSLKPEDTAVYYCAARRFWGSRRLDYWGQCTQVTVSS | high polyreactivity
6 | QVQLVDSGGDLVQAGGSLSLSCAASGRIFVYYAMGWYRQAPGTERELVAVITSVGSTYYADSVKGRFTISRDNAKNTVYLQMNSLKPEDTAVYYCAAEWEYYGFDYWGQGTQVTVSS | low polyreactivity
7 | QVQLVDSGGGIVQAGGSLRLSCAASGSTFVANAMGWYRQAPGKECEFVAAISRSGVRTYYADSVKGRFTISRDNAKNTVYLQMNSLKPEDTAVYYCAADGYWWTYSRYDYWGQGTQVTVSS | low polyreactivity
8 | QVQLVDSGGGIVQAGGSLRLSCAASGSTFYSYAMGWYTQAPGKERELVAAINRDGVSTYYSDSVKGRFTISRYNAKNTVYLLMNSLKPEDTAVYYCNARHQTLRSYRYDYWGQGTQVSVSS | low polyreactivity
9 | QVQLVDSGGGIVQEGGSRRLSCAASGSIFVNYAMGWYRQAPGKERELVAAITLRGVSTFYADSVKGRFTISRDNAKNTVYLQMNSLKPEETAVYYCAASSLRYRAYKSLFDYWGQGTQVTVSS | low polyreactivity
10 | QVQLVDSGGGLGQAVGILRLSCAASGNIFLYYAMGWYRQAPGKEREMVAAISWSGSSTYYADSVKGRFTISRYNAKNTVYLQMNSLKPEVTAVYYCNATTSSKDAFCFILVFGQGDYWGQGTQVSVSS | low polyreactivity
11 | QVQLVDSGGGLVQAGASLRLSCAASGRTFYPYAMGWYRQAPAKERELDAAISSKGGITYYADSVKGRFTISRDNAKNTVYLQMNSLNPEDTAVYYCAALYTGESGYWGQGTQVSVSS | high polyreactivity
12 | QVQLVDSGGGLVQAGGRLRISSAASGRISQGNAMGWYRQAPGKERELVAGISRSGGSTYYADSVKGRFTISRDNAKKTVYLQMNSLKPEDTAVYYCAARYYWRGYYWGQGTQVTVSS | high polyreactivity
13 | QVQLVDSGGGLVQAGGRLRLSCAASGNNFVEYAMGWYRPAPGKERELVAAITNSGGRTHYADSVKRRFTISRDNAKNTVYLQMNSLKPEDTGVYYCAAPTKYRSRRYYWGQGTLVTVSS | high polyreactivity
14 | QVQLVDSGGGLVQAGGRLRLSCAASGRTFSVNAMGWYRQAPGKERELVAAIRWRAGSTYYADSVKGRFTISRDNAKNTVYLQMNSLKPEDTAVYYCNAVTYGGRTLFPYDYWGQGTQVTVSS | high polyreactivity
15 | QVQLVDSGGGLVQAGGRLRLSCAASGSTFRLYAMGWYRQAPGKERELVAAISSNGVRTYYADSVKGRFTISRDNAKNTVYLQLNSLKPEDTAVYYCAARVYPAYPRGYDYWGQGTQVTVSS | high polyreactivity
16 | QVQLVDSGGGLVQAGGSHRLSCAASGRIFGDNAMGWYRQAPGKERELVAAIDWNDGNTYYADSVKGRFTISRDNANNTVYLQMNSLKPEDTAVYYCNTAGQDAEYDYWGQGTQVTVSS | low polyreactivity
17 | QVQLVDSGGGLVQAGGSIRLSCSPSGGTFGLNSMGWYRQAPGQERELVADIDGRGGSTYYADSVKGRFTISRDNAKNTVYLQMNRLKPEDPAVYYCADLAPFLSVPSELDYWRQGTQVTVSS | low polyreactivity
18 | QVQLVDSGGGLVQAGGSLPLSCAASGRIIAHYALGWYRQAPGKERELVAAIRRSGVSTYYADSVKGRFTISRDNANNTVYLQMHSLKPEDTAVYYCNARAYVSPYDYWGHGTQVTVSS | low polyreactivity
19 | QVQLVDSGGGLVQAGGSLPLSCAASGSIFSFYAMGWYRQAPGKERELVAAISGNGGRTYYADSVKGRFTISRDNAKNSVYLQMNSLKPEDTAVYYCAAYNSPRLCYWGQGTQVTVSS | high polyreactivity
20 | QVQLVDSGGGLVQAGGSLRFSCAASGSIFYSNAMGWYRQAPGKERELVAAISDGGTSTYYADSVKVRFTISRDNAKNTVYLQMNSLKPEDTAVYYCAAESTLQDWNWYKYYYWGQGTQVTVSS | low polyreactivity
21 | QVQLVDSGGGLVQAGGSLRISCAASGRTFYWYAMGWSRQAPGKEREFVAAISWNVGSTYYADSVKGRFTISRDHAKNTVYLQMNSLKPEDTAVYYCAAELGYPYSTYADWYYYWGQGTQVTVSS | high polyreactivity
22 | QVQLVDSGGGLVQAGGSLRLICAASGSTFARNTMGWYRQAPGKETELVAVISRGDSTYYADSVKGRFTISRDNAKNSVYLQMNSLKPEDTAVNYCIAYLRYAYPSKMDYWGQGTQVTVSS | low polyreactivity

Row | Sequence | polyreactivity (PSR sort gate)
23 | QVQLVDSGGGLVQAGGSLRLICAASGSTFNYYAMGSYRQAPGKERELVAAISYSSGRTYYADSVKGRFTISRDNSKNTVYLQMNSMKPEDTAVYYCAADRYMVSSSVHSFGYWGQGTQVTVSS | high polyreactivity
24 | QVQLVDSGGGLVQAGGSLRLSCAASGFIFIFYTMGWYRQAPGNERELVAAISRSGGSTYYADSVKGRFTISRDNAKNTVYLQMNSLKPEDTAVYYCAARAKLSHRWRSYYWGQGTQVTVSS | high polyreactivity
25 | QVQLVDSGGGLVQAGGSLRLSCAASGFIFLNNAMGWYRQAPGKERELVAAITWSGGSTYYADSVKGRFTISRDNAKNTVYLQMNSLKPEDTAVYYCAADGWLYYGVGYWGQGTQVTVSS | low polyreactivity
26 | QVQLVDSGGGLVQAGGSLRLSCAASGFIFLTYGMGWYRQAPGKERELVATITSVGSTNYADSVKGRFTISRDNAKNTVYLQMNSLKPEDTAVYYCAAVSTYHVEFDFWAEYGYWGQGTQVTVSS | low polyreactivity
27 | QVQLVDSGGGLVQAGGSLRLSCAASGFIFPSYVMGWYRQAPGKERELVATISRTGGSTYYADSVKGRYTISRDNAKNTVYLQMNSLKPEYTAVYFCAAYRYSYLQLMDYWGQGTQVTVSS | high polyreactivity
28 | QVQLVDSGGGLVQAGGSLRLSCAASGFIFRYYAMGWYRQAPGTERELVAAISRSGGSTYYADSVKGRFTISRDNAKNTVYLQMYSLKPEDTAVYYCNRGDVIGRQYDSAYGYWGQGTQVTVSS | high polyreactivity
29 | QVQLVDSGGGLVQAGGSLRLSCAASGFSLSINAMGWYRQAPGKERELVDGISWSGGSTYYADSVKGRFTISRDNAKTTFYLQMNSLKTEDTAVYYCNADLFLFVYFGQYYWRTYNYWGQGTQVTVSS | low polyreactivity
30 | QVQLVDSGGGLVQAGGSLRLSCAASGFTFTRYAMGWYRQAPGKERELVADITRGGSTNYADSVKARFTISRDNAKNTVYLQMNSLKPEDTAVYYCNAGAITNYDYCGQGTQVTVSS | high polyreactivity
31 | QVQLVDSGGGLVQAGGSLRLSCAASGFTFYSYAMGWYRPAPGKERELFAAISKSGGRSYYADSVKGRFTISRDNAKNTVYLQMKSLKPEDTGVYYCNTYGAFRSLETYDYWGQGSQVTVSS | high polyreactivity
32 | QVQLVDSGGGLVQAGGSLRLSCAASGFTIYANAMGWYRQAPGKERELVAAITSSSGRTYYADSVKGRFTISRDNAKNTVYLQMNSLIPEETAVYYCAARWSPYDYWGQGTQVTVSS | low polyreactivity
33 | QVQLVDSGGGLVQAGGSLRLSCAASGIIFVENAMGWYRQAPGKEREMVAAISWDGGSTYYADSVKGRFTISRDNAKNTVYLQMNSLKPEDTAVYYCAADLTISYSQEYYYWGQGTQVTVSS | low polyreactivity
34 | QVQLVDSGGGLVQAGGSLRLSCAASGIISIVYAMGWYRQAPGKERELVAAISSGGSTYYADSVKGRFTISRDNAKNTVYLQMNRLKPEDTAVYYCATAYRYPPNAYFQRMDSWGQGTQVTVSS | high polyreactivity
35 | QVQLVDSGGGLVQAGGSLRLSCAASGITFKRYAMGWYRQAPGKERELVAAITGIGGSTYYADSVKGRFTISSDNAKNTVYLQMNSLKPEDTAVYYCAARNNKKYDYWGQGTQVTVSS | high polyreactivity
36 | QVQLVDSGGGLVQAGGSLRLSCAASGITFSWYAMGWYRQAPGKERELVAAITRNGGSTYYADSVKGRFTISRDNAKNTVYLLMNSLKPEDTAVYYCNARKKYENYYWGQGTQVTVSS | high polyreactivity
37 | QVQLVDSGGGLVQAGGSLRLSCAASGITITEYAMGWYRQAPGKERELVAVISSVGTMYYADSVKGRFTISRDNAKNTVYFQMNSLKPEDTAVYYCAADYSDDGEYPYWSGSDYWGQGTQVTVSS | low polyreactivity
38 | QVQLVDSGGGLVQAGGSLRLSCAASGLIFGYYDMGWYRQAPGKERELVAAITTGDSTYYADSVKGRFTISRDNAKNTVYLQMTCLKPEDSAVYYCSAYAFWYYESDYWGKGTQVTVSS | low polyreactivity
39 | QVQLVDSGGGLVQAGGSLRLSCAASGLIFSQYAMGWYRQAPGKEREFVARISSSGGSTYYADSVKGRFTISRDNAKNTVYLQMNSLKPEDTAVYYCAAVGGRNIRVWFRNKYDSWGQGTQVTVSS | low polyreactivity
40 | QVQLVDSGGGLVQAGGSLRLSCAASGLIFTYYAMGWYRQAPGKERELVAAINYSGGSTYYADSVKGRFTISRDNAKNSVYLQMNSLKPEDTAVYYCAARRVTQTEGPMGYWGQGTQVTVSS | low polyreactivity
41 | QVQLVDSGGGLVQAGGSLRLSCAASGLTFIRYAMGWYRQAPGKERELVAAITRGGTRTYYADSVKGRFTISRDNAKNTVYLQMNSLKPEDTAVYYCAALSRYGRFDYWGQGTQVTVSS | high polyreactivity
42 | QVQLVDSGGGLVQAGGSLRLSCAASGLTFSKYAMGWYRQAPGKERELVSAISRSGGSTYYADSVKGRFTISRDNAKNTVYLQMNSLKPEDTAVYYCAARRLVGAERPGYDYWGQGTQVTVSS | high polyreactivity
43 | QVQLVDSGGGLVQAGGSLRLSCAASGNIFRANAMGWYRQAPGKERELVAAIRWRGVGTYYADSVKGRFTISRDYAKNTVYLQINSLKPEDTAVYYCAAYVKTGAYDYWGQGTLVTVSS | high polyreactivity
